Source: the supplement of paper PMC5998384

Tests used:
HeLa Kyoto [1] = test: solubility in G1/S (NP-40 vs SDS abundance) (log2 ratio); higher = more soluble; conditions: cell cycle stage: G1/S
HeLa Kyoto [2] = test: thermal stability score vs G1/S (z-score of summed log2 fold changes over temperatures); higher = more thermally stable than in G1/S
HeLa Kyoto [3] = test: solubility change mitosis vs G1/S (difference of NP-40 vs SDS log2 ratios) (log2 ratio difference); higher = more soluble in mitosis
HeLa Kyoto [4] = test: melting temperature (median over replicates), in situ; higher = more thermally stable
[5] = cell cycle stage: early G1 (4.5 h after nocodazole release)
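For melting temperature (median over replicates), in situ in this document: HeLa Kyoto cells synchronized by double thymidine or nocodazole block, proteins quantified by TMT10plex mass spectrometry, three independent biological replicates.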
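For solubility change mitosis vs G1/S (difference of NP-40 vs SDS log2 ratios) in this document: synchronized HeLa Kyoto cells (double thymidine block for G1/S, nocodazole release for mitosis), protein amounts in NP-40 versus SDS lysates quantified by mass spectrometry, three biological replicates.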
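For solubility in G1/S (NP-40 vs SDS abundance) in this document: HeLa Kyoto cells arrested at G1/S by double thymidine block, proteins quantified by TMT10plex mass spectrometry in mild NP-40 versus SDS extracts, three biological replicates.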
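For thermal stability score vs G1/S (z-score of summed log2 fold changes over temperatures) in this document: synchronized HeLa Kyoto cells, proteins quantified by TMT10plex mass spectrometry, three biological replicates, mitosis taken 0.5 h after nocodazole release, G1/S directly after double thymidine block.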

Chain of CDK17 (chain, as listed by the source): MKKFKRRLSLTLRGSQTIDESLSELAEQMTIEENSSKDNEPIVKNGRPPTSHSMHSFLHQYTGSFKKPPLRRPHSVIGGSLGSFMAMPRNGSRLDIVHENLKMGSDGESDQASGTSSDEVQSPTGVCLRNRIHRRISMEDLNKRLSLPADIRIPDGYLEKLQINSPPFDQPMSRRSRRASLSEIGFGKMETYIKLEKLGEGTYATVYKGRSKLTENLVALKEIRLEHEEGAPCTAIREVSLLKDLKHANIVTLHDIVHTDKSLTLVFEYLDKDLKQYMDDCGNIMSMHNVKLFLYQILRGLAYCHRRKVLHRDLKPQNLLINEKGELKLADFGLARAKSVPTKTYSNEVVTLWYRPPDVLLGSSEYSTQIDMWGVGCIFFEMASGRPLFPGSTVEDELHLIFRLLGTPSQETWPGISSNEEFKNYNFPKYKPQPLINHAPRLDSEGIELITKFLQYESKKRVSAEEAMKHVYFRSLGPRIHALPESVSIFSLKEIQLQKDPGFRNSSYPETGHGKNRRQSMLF

| Substance | solubility in G1/S (log2) (HeLa Kyoto [1]) | thermal stability score (HeLa Kyoto [2]; [5]) | thermal stability score (HeLa Kyoto [2]; cell cycle stage: mitosis) | solubility change mitosis (log2) (HeLa Kyoto [3]) | melting temperature (HeLa Kyoto [4]; cell cycle stage: G1/S) [°C] | melting temperature (HeLa Kyoto [4]; cell cycle stage: mitosis) [°C] |
| --- | --- | --- | --- | --- | --- | --- |
| ASPM | -0.625 | 0.917 | -0.0273 | 0.177 | – | – |
| CDK17 | -0.187 | 0.0888 | -0.0845 | 0.0778 | – | – |
| DYNC2H1 | -0.273 | 0.756 | 0.972 | 0.0553 | – | – |
| MAAAAGDGGGEGGAGLGSAAGLGPGPGLRGQGPSAEAHEGAPDPMPAALHPEEVAARLQRMQRELSNRRKILVKNLPQDSNCQEVHDLLKDYDLKYCYVDRNKRTAFVTLLNGEQAQNAIQMFHQYSFRGKDLIVQLQPTDALLCITNVPISFTSEEFEELVRAYGNIERCFLVYSEVTGHSKGYGFVEYMKKDFAAKARLELLGRQLGASALFAQWMDVNLLASELIHSKCLCIDKLPSDYRDSEELLQIFSSVHKPVFCQLAQDEGSYVGGFAVVEYSTAEQAEEVQQAADGMTIKGSKVQVSFCAPGAPGRSTLAALIAAQRVMHSNQKGLLPEPNPVQIMKSLNNPAMLQVLLQPQLCGRAVKPAVLGTPHSLPHLMNPSISPAFLHLNKAHQSSVMGNTSNLFLQNLSHIPLAQQQLMKFENIHTNNKPGLLGEPPAVVLQTALGIGSVLPLKKELGHHHGEAHKTSSLIPTQTTITAGMGMLPFFPNQHIAGQAGPGHSNTQEKQPATVGMAEGNFSGSQPYLQSFPNLAAGSLLVGHHKQQQSQPKGTEISSGAASKNQTSLLGEPPKEIRLSKNPYLNLASVLPSVCLSSPASKTTLHKTGIASSILDAISQGSESQHALEKCIAYSPPFGDYAQVSSLRNEKRGSSYLISAPEGGSVECVDQHSQGTGAYYMETYLKKKRVY [RAVER2] | 0.172 | 1.56 | 1.81 | -0.203 | – | – |
| MSRQTTSVGSSCLDLWREKNDRLVRQAKVAQNSGLTLRRQQLAQDALEGLRGLLHSLQGLPAAVPVLPLELTVTCNFIILRASLAQGFTEDQAQDIQRSLERVLETQEQQGPRLEQGLRELWDSVLRASCLLPELLSALHRLVGLQAALWLSADRLGDLALLLETLNGSQSGASKDLLLLLKTWSPPAEELDAPLTLQDAQGLKDVLLTAFAYRQGLQELITGNPDKALSSLHEAASGLCPRPVLVQVYTALGSCHRKMGNPQRALLYLVAALKEGSAWGPPLLEASRLYQQLGDTTAELESLELLVEALNVPCSSKAPQFLIEVELLLPPPDLASPLHCGTQSQTKHILASRCLQTGRAGDAAEHYLDLLALLLDSSEPRFSPPPSPPGPCMPEVFLEAAVALIQAGRAQDALTLCEELLSRTSSLLPKMSRLWEDARKGTKELPYCPLWVSATHLLQGQAWVQLGAQKVAISEFSRCLELLFRATPEEKEQGAAFNCEQGCKSDAALQQLRAAALISRGLEWVASGQDTKALQDFLLSVQMCPGNRDTYFHLLQTLKRLDRRDEATALWWRLEAQTKGSHEDALWSLPLYLESYLSWIRPSDRDAFLEEFRTSLPKSCDL [FANCG] | 0.138 | – | – | -0.0579 | 49.9 | 48 |
| MSVAGGEIRGDTGGEDTAAPGRFSFSPEPTLEDIRRLHAEFAAERDWEQFHQPRNLLLALVGEVGELAELFQWKTDGEPGPQGWSPRERAALQEELSDVLIYLVALAARCRVDLPLAVLSKMDINRRRYPAHLARSSSRKYTELPHGAISEDQAVGPADIPCDSTGQTST [DCTPP1] | -0.0125 | – | – | 0.646 | 54.1 | 50.5 |
| MSYYLSSENHLDPGPIYMRENGQLHMVNLALDGVRSSLQKPRPFRLFPKGFSVELCMNREDDTARKEKTDHFIFTYTREGNLRYSAKSLFSLVLGFISDNVDHIDSLIGFPEQIAEKLFSAAEARQKFTEPGAGLRALQKFTEAYGSLVLCSLCLRNRYLVISEKLEEIKSFRELTCLDLSCCKLGDEHELLEHLTNEALSSVTQLHLKDNCLSDAGVRKMTAPVRVMKRGLENLTLLDLSCNPEITDAGIGYLFSFRKLNCLDISGTGLKDIKTVKHKLQTHIGLVHSKVPLKEFDHSNCKTEGWADQIVLQWERVTAEAVKPRETSEPRAAAQRFYGKRSRAEAPLKCPLADTHMNSSEKLQFYKEKAPDCHGPVLKHEAISSQESKKSKKRPFEESETEQNNSSQPSKQKYVCLAVEDWDLLNSY [LRRC42] | -0.0147 | – | – | -0.111 | 49 | 50.9 |
| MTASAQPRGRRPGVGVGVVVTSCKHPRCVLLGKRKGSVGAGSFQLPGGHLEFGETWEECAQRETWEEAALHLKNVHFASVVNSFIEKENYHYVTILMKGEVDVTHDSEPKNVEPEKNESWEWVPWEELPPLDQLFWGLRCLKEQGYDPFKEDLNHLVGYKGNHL [NUDT15] | 0.425 | – | – | -0.3 | 53.4 | 52.3 |
| MTGKKSSREKRRKRSSQEAAAALAAPDIVPALASGSSGSTSGCGSAGGCGSVSCCGNANFSGSVTGGGSGGSCWGGSSVERSERRKRRSTDSSSVSGSLQQETKYILPTLEKELFLAEHSDLEEGGLDLTVSLKPVSFYISDKKEMLQQCFCIIGEKKLQKMLPDVLKNCSIEEIKKLCQEQLELLSEKKILKILEGDNGMDSDMEEEADDGSKMGSDLVSQQDICIDSASSVRENKQPEGLELKQGKGEDSDVLSINADAYDSDIEGPCNEEAAAPEAPENTVQSEAGQIDDLEKDIEKSVNEILGLAESSPNEPKAATLAVPPPEDVQPSAQQLELLELEMRARAIKALMKAGDIKKPA [CAAP1] | -0.326 | – | – | 0.56 | 47.3 | 51.8 |
| MTKIKADPDGPEAQAEACSGERTYQELLVNQNPIAQPLASRRLTRKLYKCIKKAVKQKQIRRGVKEVQKFVNKGEKGIMVLAGDTLPIEVYCHLPVMCEDRNLPYVYIPSKTDLGAAAGSKRPTCVIMVKPHEEYQEAYDECLEEVQSLPLPL [NHP2] | -1.1 | – | – | 1.21 | 55.3 | 54.1 |
| MTTSQKHRDFVAEPMGEKPVGSLAGIGEVLGKKLEERGFDKAYVVLGQFLVLKKDEDLFREWLKDTCGANAKQSRDCFGCLREWCDAFL [BANF1] | -1.48 | – | – | 1.93 | – | 52.2 |
| MTTTTTFKGVDPNSRNSSRVLRPPGGGSNFSLGFDEPTEQPVRKNKMASNIFGTPEENQASWAKSAGAKSSGGREDLESSGLQRRNSSEASSGDFLDLKGEGDIHENVDTDLPGSLGQSEEKPVPAAPVPSPVAPAPVPSRRNPPGGKSSLVLG [HN1] | -0.248 | – | – | 0.268 | 52.1 | – |
| MVGPAPRRRLRPLAALALVLALAPGLPTARAGQTPRPAERGPPVRLFTEEELARYGGEEEDQPIYLAVKGVVFDVTSGKEFYGRGAPYNALTGKDSTRGVAKMSLDPADLTHDTTGLTAKELEALDEVFTKVYKAKYPIVGYTARRILNEDGSPNLDFKPEDQPHFDIKDEF [NENF] | 0.423 | – | – | -0.0192 | 55.3 | 52.4 |
